The values that follow come from US20180118841A1.

The target in assay [1] is OX40 human/mouse chimera 1544 (human; mouse) (UniProt P47741). The experiment in a line: FACS, 293-F transfectants; MFI/isotype control. In general terms: A flow cytometer gives signals particle by particle.
The target in assay [2] is CD137 human/mouse chimera 1550 (human; mouse) (UniProt P20334). The assay can be described thus: FACS, 293-F transfectants; MFI/isotype, normalized to full-length CD137.
Sequence of CD137 human/mouse chimera 1550 (human; mouse) (P20334 other isoform, or with tags, fused parts or gaps mutant limits assumed): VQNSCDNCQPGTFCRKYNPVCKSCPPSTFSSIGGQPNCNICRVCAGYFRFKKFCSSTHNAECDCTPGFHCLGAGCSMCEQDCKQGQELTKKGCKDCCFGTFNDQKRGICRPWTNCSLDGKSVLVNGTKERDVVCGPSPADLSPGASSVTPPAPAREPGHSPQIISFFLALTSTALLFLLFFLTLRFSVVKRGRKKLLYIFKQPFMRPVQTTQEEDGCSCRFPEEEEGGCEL

Sequence of OX40 human/mouse chimera 1544 (human; mouse) (P47741 other isoform, or with tags, fused parts or gaps mutant limits assumed): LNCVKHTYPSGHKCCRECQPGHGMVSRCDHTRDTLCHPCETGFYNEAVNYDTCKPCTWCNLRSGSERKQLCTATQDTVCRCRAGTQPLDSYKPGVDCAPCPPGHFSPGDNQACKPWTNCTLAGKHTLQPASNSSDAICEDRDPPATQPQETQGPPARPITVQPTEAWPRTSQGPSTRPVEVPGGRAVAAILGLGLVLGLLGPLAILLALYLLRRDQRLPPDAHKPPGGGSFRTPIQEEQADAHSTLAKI

B1: anti-OX40 antibody 1170/1171 (antibody, V domains shown)
VH: EVQLLESGGGLVQPGGSLRLSCAASGFTFGGYYMSWVRQAPGKGLEWVSYIPGSGGSTYYADSVKGRFTISRDNSKNTLYLQMNSLRAEDTAVYYCARYDYYWMDYWGQGTLVTVSS
VL: DIQMTQSPSSLSASVGDRVTITCRASQSISSYLNWYQQKPGKAPKLLIYAASSLQSGVPSRFSGSGSGTDFTLTISSLQPEDFATYYCQQGHGSYPHTFGQGTKLEIK
B1 registered a relative MFI in assay [1] of 2.

B2: anti-CD137 antibody 1204/1205 (antibody, IgG1, V domains shown)
VH: EVQLLESGGGLVQPGGSLRLSCAASGFTFSSYYMGWVRQAPGKGLEWVSGIGSYYGYTGYADSVKGRFTISRDNSKNTLYLQMNSLRAEDTAVYYCARAYYDYNYYYAYFDYWGQGTLVTVSS
VL: DIQMTQSPSSLSASVGDRVTITCRASQSISSYLNWYQQKPGKAPKLLIYAASSLQSGVPSRFSGSGSGTDFTLTISSLQPEDFATYYCQQSVPHYPFTFGQGTKLEIK
In assay [2], B2 showed a relative binding of 0.07.
